Measured values reported in patent US6358897B1, “Alkyl trypsin compositions and methods of use in contact lens cleaning and disinfecting systems” (Alcon Laboratories, Inc., priority 1996, dated 2002).

Test system: azocasein
Test: Stability of Et-trypsin and trypsin in a disinfecting composition (Example 2B), azocasein method
Type: physicochemical
Details: 37° C., Example 2B composition, 50 μg/ml
Protocol: Azocasein Method The following solutions are used in this assay: 1) Buffer solution: 0.05 M sodium phosphate buffer containing 0.9% sodium chloride, pH 7.6. 2) Substrate solution: 2 mg/ml azocasein in the buffer solution mentioned above. The assay is initiated by mixing 1 ml of an appropriately diluted (such that the enzyme activity is in the range of standard curve) enzyme composition in phosphate buffer with 2 ml of azocasein substrate solution (2 mg/ml). After incubation at 37° C. for 20 minutes, the mixture is removed from the incubator and 1 ml of trichloroacetic acid to (14% w/v) is added to stop the enzyme reaction. The mixture is vortexed well and allowed to stand at room temperature for 20 minutes. After centrifuging at 2500 rpm (with a Beckman GS-6R Centrifuge) for 15 minutes, the supernatant is filtered with a serum sampler. 2 ml of the clear yellow filtrate is then adjusted to a neutral pH with 2 ml of 0.5 N sodium hydroxide and the absorbance of 440 nm wavelength light is measured with a spectrophotometer. The amount of azocasein hydrolyzed is calculated based on a standard curve of known concentrations of azocasein solution developed under identical conditions. An enzyme activity unit (“AZ U”) is defined as that amount of enzyme which hydrolyzes 1 μg of azocasein substrate/minute at 37° C. The following is an example of the stability of Et-trypsin or Me-trypsin in a disinfecting composition of the present invention as compared to an analogous composition containing trypsin. The enzymes were solubilized in the Example 2B composition. The compositions were stored at 37° or 50° C. for 8 days or 30 hours, respectively. At various time points, enzyme activity was assayed using the azocasein method.

Substance: ethyl trypsin [Et-Trypsin]
- % Activity Remaining (1 Hour): 100%
- % Activity Remaining (2 Hours): 100%
- % Activity Remaining (4 Hours): 95.2%
- % Activity Remaining (6 Hours): 99.3%
- % Activity Remaining (8 Hours): 97.9%
- % Activity Remaining (1 day): 89.7%
- % Activity Remaining (2 days): 82.5%
- % Activity Remaining (4 days): 76.4%
- % Activity Remaining (8 days): 65.6%
